# Results reported in patent US20220395579A1 (Daiichi Sankyo, published 2022).
# T1: human CLDN3 (human, UniProt O15551 1-220)
# T1 construct: whole, on cells; Transfection was confirmed with an anti-FLAG antibody, so the construct may carry a tag
# T1 sequence (looked up): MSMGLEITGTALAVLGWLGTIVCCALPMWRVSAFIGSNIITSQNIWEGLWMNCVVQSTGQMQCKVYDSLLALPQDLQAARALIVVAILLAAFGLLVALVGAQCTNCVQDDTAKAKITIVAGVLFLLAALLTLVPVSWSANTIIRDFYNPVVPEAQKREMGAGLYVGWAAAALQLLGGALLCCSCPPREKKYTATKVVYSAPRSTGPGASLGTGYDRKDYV
# T2: human CLDN4 (human, UniProt O14493 1-209)
# T2 construct: whole, on cells; Transfection was confirmed with an anti-FLAG antibody, so the construct may carry a tag
# T2 sequence (looked up): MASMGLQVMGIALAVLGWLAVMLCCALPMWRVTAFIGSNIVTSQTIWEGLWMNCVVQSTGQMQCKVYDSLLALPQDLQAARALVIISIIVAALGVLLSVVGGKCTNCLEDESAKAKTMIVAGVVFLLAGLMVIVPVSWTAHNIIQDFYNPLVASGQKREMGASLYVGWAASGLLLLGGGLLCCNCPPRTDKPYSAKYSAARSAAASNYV
# T3: human CLDN6 (human, UniProt P56747 1-220)
# T3 construct: In the flow cytometry it was expressed on 293T cells from human CLDN6/pCMV-Entry bought from OriGene; It was also expressed on CHO-K1 cells by cDNA transfection, and the endogenous protein was immunoprecipitated from NTERA-2 cell lysate; also called claudin-6; hCLDN6
# T3 sequence: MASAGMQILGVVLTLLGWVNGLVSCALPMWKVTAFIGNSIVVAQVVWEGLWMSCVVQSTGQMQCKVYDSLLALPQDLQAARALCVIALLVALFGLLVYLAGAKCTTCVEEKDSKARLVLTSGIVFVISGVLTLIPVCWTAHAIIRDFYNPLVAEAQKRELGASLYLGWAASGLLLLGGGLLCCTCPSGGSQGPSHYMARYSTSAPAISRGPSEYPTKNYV
# T4: human CLDN9 (human, UniProt O95484 1-217)
# T4 construct: It was expressed on 293T cells from human CLDN9/pCMV6-Entry bought from OriGene; also called claudin-9
# T4 sequence: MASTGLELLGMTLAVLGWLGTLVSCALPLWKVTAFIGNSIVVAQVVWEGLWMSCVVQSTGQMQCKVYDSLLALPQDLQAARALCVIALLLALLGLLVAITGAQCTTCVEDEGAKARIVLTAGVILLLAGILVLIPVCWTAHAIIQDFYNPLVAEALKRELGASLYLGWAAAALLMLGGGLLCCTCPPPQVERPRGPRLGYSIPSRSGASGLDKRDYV
# How the values were obtained:
# human CLDN3 = target: T1, human CLDN3; assay: flow cytometry on 293T cells transiently transfected with human CLDN3
# human CLDN4 = target: T2, human CLDN4; assay: flow cytometry on 293T cells transiently transfected with human CLDN4
# human CLDN6 [1] = target: T3, human CLDN6; assay: flow cytometry on 293T cells transiently transfected with human CLDN6
# Description: (§1) The binding activity of the humanized anti-CLDN6 antibody produced in Example 136 to human CLDN6 and its family molecules, CLDN3, CLDN4, and CLDN9, was evaluated by using a flow cytometry method. […] The cells were washed with Dulbecco's phosphate buffered saline (Sigma-Aldrich Co. LLC) containing 5% fetal bovine serum (Hyclone) (hereinafter, referred to as 5% FBS-containing PBS), and FITC AffiniPureF (ab′)₂ Fragment Goat Anti-Human IgG (H+L) (Jackson ImmunoResearch Laboratories Inc.) 150-fold diluted with 5% FBS-containing PBS was then added thereto, and the cells were suspended and left to stand at 4° C. for 30 minutes. After washing with 5% FBS-containing PBS, detection was carried out by using a flow cytometer (FC500; Beckman Coulter, Inc.). Data analysis was carried out by using FlowJo (Tree Star, Inc.), and mean fluorescence intensity (MFI) of FITC, which indicates the amount of the binding antibody, was calculated. […] In each graph in FIG. 42, the abscissa represents antibody concentrations and the ordinate represents MFI.
# human CLDN9 = target: T4, human CLDN9; assay: flow cytometry on 293T cells transiently transfected with human CLDN9
# Description: as §1
# human CLDN6 [2] = target: T3, human CLDN6; assay: immunoprecipitation from NTERA-2 cell lysate with the antibody, SDS-PAGE, mass spectrometry of the 18 kDa band
# Description: 2×10⁷ NTERA-2 cells were collected and washed twice with PBS. The cells were collected by using a cell scraper, and centrifuged at 1500 rpm for 5 minutes. After the supernatant was removed, the cells were resuspended in 2 mL of the lysis buffer, and treated at 4° C. for 30 minutes. The resultant was centrifuged (13000 rpm, 20 minutes, 4° C.) to prepare a cell lysate. Protein G Sepharose/lysis buffer (50% slurry; 180 μL) was added to the cell lysate, and the resultant was rotated at 4° C. for 30 minutes and then centrifuged at 4° C. for 1 hour, and the supernatant was collected. […] The Protein G Sepharose was washed six times with the lysis buffer (1 mL), and then resuspended in 1×SDS sample buffer. After the suspension was treated at 100° C. for 5 minutes, the solution was collected as a sample for SDS-PAGE. SDS-PAGE was carried out in the same manner as in 2-2), and the electrophoresis gel was stained with CBB. The part corresponding to 18 kDa was cut out of the electrophoresis gel, and subjected to mass spectrometry.
# human CLDN6 [3] = target: T3, human CLDN6; assay: FACS on CHO-K1 cells transfected with human claudin-6 cDNA
binding result (human CLDN3),binding result (human CLDN4),binding result (human CLDN6 [1]),binding result (human CLDN9),binding result (human CLDN6 [2]),binding result (human CLDN6 [3]),Binder
no binding (tested: 100 nM),no binding (tested: 100 nM),binds,binds,–,–,"humanized anti-CLDN6 antibody H1L3 (antibody, human IgG1, kappa, L234A L235A, V domains shown, Heavy chain hH1 with light chain hL3; Human IgG1 LALA constant region and human kappa light chain; also called H1L3 antibody) VH: QVQLVQSGAEVKKPGASVKVSCKASGYTFTEYTMHWVRQAPGQGLEWMGGVNPNSGDTSYAQKFQGRVTITADTSTSTAYMELSSLRSEDTAVYYCARPGGYDVGYYAMDYWGQGTLVTVSS VL: DIQMTQSPSSLSASVGDRVTITCRASQDINNYLNWYQQKPGGAVKLLIYFTSRLHSGVPSRFSGSGSGTDYTLTISSLQPEDFATYYCQQGYPLPWTFGGGTKVEIKR"
no binding (tested: 100 nM),no binding (tested: 100 nM),binds,binds,–,–,"humanized anti-CLDN6 antibody H1L1 (antibody, human IgG1, kappa, L234A L235A, V domains shown, Heavy chain hH1 with light chain hL1; Human IgG1 LALA constant region and human kappa light chain; also called H1L1 antibody) VH: QVQLVQSGAEVKKPGASVKVSCKASGYTFTEYTMHWVRQAPGQGLEWMGGVNPNSGDTSYAQKFQGRVTITADTSTSTAYMELSSLRSEDTAVYYCARPGGYDVGYYAMDYWGQGTLVTVSS VL: DIQMTQSPSSLSASVGDRVTITCRASQDINNYLNWYQQKPGKAPKLLIYFTSRLHSGVPSRFSGSGSGTDYTLTISSLQPEDFATYYCQQGYPLPWTFGQGTKVEIKR"
no binding (tested: 100 nM),no binding (tested: 100 nM),binds,binds,–,–,"humanized anti-CLDN6 antibody H2L2 (antibody, human IgG1, kappa, L234A L235A, V domains shown, Heavy chain hH2 with light chain hL2; Human IgG1 LALA constant region and human kappa light chain; also called H2L2 antibody) VH: EVQLVQSGAEVKKPGASVKVSCKTSGYTFTEYTMHWVRQAPGKSLEWMGGVNPNSGDTSYAQKFQGRVTITADTSTSTAYMELSSLRSEDTAVYYCARPGGYDVGYYAMDYWGQGTLVTVSS VL: DIQMTQSPSSLSASVGDRVTITCRASQDINNYLNWYQQKPGKAVKLLIYFTSRLHSGVPSRFSGSGSGTHYTLTISSLQPEDFATYYCQQGYPLPWTFGQGTKVEIKR"
no binding (tested: 100 nM),no binding (tested: 100 nM),binds,binds,–,–,"humanized anti-CLDN6 antibody H2L4 (antibody, human IgG1, kappa, L234A L235A, V domains shown, Human IgG1 LALA constant region and human kappa light chain; also called H2L4 antibody) VH: EVQLVQSGAEVKKPGASVKVSCKTSGYTFTEYTMHWVRQAPGKSLEWMGGVNPNSGDTSYAQKFQGRVTITADTSTSTAYMELSSLRSEDTAVYYCARPGGYDVGYYAMDYWGQGTLVTVSS VL: DIQMTQSPSSLSASVGDRVTITCRASQDINNYLNWYQQKPGGAVKLLIYFTSRLHSGVPSRFSGSGSGTDYTLTISSLQPEDFATYYCQQGNTLPWTFGGGTKVEIKR"
no binding (tested: 100 nM),no binding (tested: 100 nM),binds,binds,–,–,"humanized anti-CLDN6 antibody H3L3 (antibody, human IgG1, kappa, L234A L235A, V domains shown, Heavy chain hH3 with light chain hL3; Human IgG1 LALA constant region and human kappa light chain; also called H3L3 antibody) VH: EVQLVQSGAEVKKPGASVKVSCKTSGYTFTEYTMHWVRQAPGQGLEWMGGVNPNSGDTSYAQKFQGRVTLTVDKSTSTAYMELSSLRSEDTAVYYCARPGGYDVGYYAMDYWGQGTLVTVSS VL: DIQMTQSPSSLSASVGDRVTITCRASQDINNYLNWYQQKPGGAVKLLIYFTSRLHSGVPSRFSGSGSGTDYTLTISSLQPEDFATYYCQQGYPLPWTFGGGTKVEIKR"
no binding,no binding,–,binds,binds,–,"mouse anti-CLDN6 antibody B1 (antibody, V domains shown, Mouse monoclonal antibody purified from the culture supernatant of hybridoma 218B1; a mouse IgG1 was used as the control; also called B1 antibody; 218B1) VH: EVQLQQSGPELVKPGASVKISCKTSGYTFTEYTMHWVQQSHGKSLEWIGGVNPNSGDTSYNQKFKGKATLTVDKSSSTAYMELRSLTSEDSAVYYCARPGGYDVGYYAMDYWGQGTSVTVSS VL: DIQMTQTASSLSASLGDRVTISCRASQDINNYLNWYQQKPDGTVKLLIYFTSRLHSGVPSRFSGSGSGTHYSLTITNLEQEDIATYFCQQGYPLPWTFGGGTKLEIK"
no binding,no binding,–,binds,–,binds,"mouse anti-CLDN6 antibody C7 (antibody, V domains shown, Mouse monoclonal antibody purified from the culture supernatant of hybridoma 218C7; also called C7 antibody; 218C7) VH: EVQLQQSGPELVKPGASVKISCKTSGYTFTEYTMHWVQQSHGKSLEWIGGVNPNSGDTSYNQKFKGKATLTVDKSSSTAYMELRSLTSEDSAVYYCARPGGYDVGYYAMDYWGQGTSVTVSS VL: DIQMTQTASSLSASLGDRVTISCRASQDINNYLNWYQQKPDGTVKLLIYSTSRLHSGVPSRFSGSGSGTHYSLTITHLEQEDIATYFCQQGYPLPWTFGGGTKLEIK"
